Positions count from the first letter of the chain named.
B1: B83 (antibody)
VH: QVQLRESGPSLVKPSQTLSLTCTASGFSLSDKAVGWVRQAPGKALEWLGSIDTGGSTGYNPGLKSRLSITKDTSKTQVSLSVSSVTTEDSATYYCTNVHQKTTTERSCPDLGYKYECGNNCCWYSSCRGCIQGTYTSTYNFYVHAWGQGLRVTVSS
VL: QAVLTQPSSVSGSLGQRVSITCSGSSSNVGNGYVSWYQLIPGSGPRTLIYGDTSRASGVPDRFSGSRSGNTATLTISSLQAEDEADYFCASTEDSSSNVVFGSGTTLTVL
B2: C4 (antibody, V domains shown)
VH: QVQLRESGPSLVKPSQTLFLTCTVSGFSLTSYSVNWVRQTPGKMLECLGGIATSGSTGYNPVLKSRLRITKDNSKSQVSLSVSNVTPEDTATYYCAKWSSRGGYDCGVHSSDYSYLDAWGQGLLVTVSS
VL: QAVLTQPSSVSASLGQRVSITCSGSSSNIGRYGATWYQQVPGSGLRTIIYGSSRRPSGVPDRFSGSKSGNTVTLTISSLQPEDEADYFCAAYDISTNAVFGSGTTLTLL
B3: C5 (antibody, V domains shown)
VH: QVQLRESGPSLVKPSQTLSLTCTVSGFSLSSYGVGWVRQAPGRALEFLADIYSDGSTTYNLALKSRLSIMKDNSKSEVSLSLSSVTTEDTATYYCAKSSRGVGWGDGLHYNENDAGAWGQGLLVTVSS
VL: QAVLSQPPSVSGSLGQTVTIPCTGSSNNIGILGVSWYQQIPGSAPRTLVYNNNKRPSGVADRFSGTKSGNTGTLTIASLQAEDEADYYCASADPNFGGGTRVTVL
B4: C9 (antibody, V domains shown)
VH: QVQLRESGPSPVKPSQTLSLTCTVSGFSLSSYAVAWVRQAPGKALEWVAGISGGGSTSYNAALKSRLRITKDNSKSQVALSLSSVTSEDTATYYCVKCANDYGSYFCYNYDYGYDFYVDAWGQGLLVTVSS
VL: QAVLTQPSSVSGSLGQRVSITCAGSSSNIGTYSVGWYQQVPGSGLTTIIYETTGRPKGVPDRFSGSKSGNTATLTITSLQAEDEADYFCVTYELGSGAVFGSGTTLTVL
B5: E18 (antibody, V domains shown)
VH: QVQLRESGPSLVTPSQTLSLTCAVSGGSLSTHDVVWVRQAPGRALEWVGGISSRGTTYYNPALKSRLSITQDLSKNQVSLSVGSVTPDDTATYYCAKDLCGGRINGCYNDGYYYSLRVDAWGQGLLVTVSS
VL: QAVLAQPSSVSGSLGQRVSITCSGSSNNIGSYGVGWYQQVPGSGLRTIIYGSSNRPSGVPDRFSGSKSGNTATLTISSLQAEDEADYFCAASDYSSNTVVFASGTTLTVL
B6: E34 (antibody, V domains shown)
VH: QVQLRESGPSLVKPSQTLSLTCTVSGFSLNDYNVGWVRQAPGKALECLGGYKADGSTNYNSALKSRLSITKDSSKKQVSLSLSSVTTEDTATYYCAKCPSRWGCDYCDNYDFWGQGLLVTVSS
VL: B1 VL with N28D, N31K, I40M, A56I, T92A, E93D, V99A
B7: E50 (antibody)
VH: QVQLRESGPSLVKPSQTLSLTCTASGFSLSDKAVGWVRQAPGKALEWLGSVDTSGSTGYNPGLESRLIITKDNSKSRVSLSVHSVTSEDSATYYCVTVHQKSRDEKSCPDGYIDGAGCKYGWPCSDQDCCVCSSCVYGYSGMNCVPARYSESYEWNVEAWGQGLLVTVSS
VL: B1 VL with S27T, G44A, S54T, F88S, T92A, V99A
B8: A35 (antibody, V domains shown)
VH: QVQLRESGPSLVKPSQTLSLTCTVSGFSLSSNGVIWVRQAPGKALEWLGGICGGGSTSFNPSLKSRLTITKDNSKNQVSLSVRSVTPEDTATYYCARSCGSYRDAWYDCASDGYRYHNYVDAW
VL: QAVLTQPSSVSGSLGQRVSITCSGSNNNIGSYAVGWYQQVPGSGLRTIIYGSTIRPSGVPDRFSGSKSRSTATLTISSLQAEDEADYFCATADYSSSTVVFGSGTTLTVL

Biological target: FMDV O/Mya/98 146S antigen (Foot-and-mouth disease virus serotype …, UniProt G8JKC2, strain)
Assay: cell-based or functional assay

First: B1
Second: B2
The “virus neutralizing test on BHK-21 cells, IC50” value (“virus neutralizing test” below) of the first is 4.3-fold higher: 12.2 µg/mL for the first, 2.86 µg/mL for the second.

Compared with B3, B4 is 2.6-fold lower in “virus neutralizing test” value: 4.69 µg/mL for the first, 1.82 µg/mL for the second.

Going from B5 to B6, the “virus neutralizing test” value rises from 0.78 µg/mL to 3.13 µg/mL (4-fold).

Going from B7 to B8, the “virus neutralizing test” value falls from 11.5 µg/mL to 1.43 µg/mL (8-fold).

— publication PMC6908506, “Development of Foot-and-Mouth Disease Virus-Neutralizing Monoclonal Antibodies Derived From Plasmablasts of Infected Cattle and Their Germline Gene Usage” (Frontiers in Immunology, 2019)
